# Assay results: article PMC4757827 (2016)
# Molecular target: recombinant importin α1 (construct not stated for this experiment) (Homo sapiens (Human), UniProt P52292)
# Experiment: ELISA
binder,measurement,value
IFN-γ (recombinant) (protein) QDPYVKEAENLKKYFNAGHSDVADNGTLFLGILKNWKEESDRKIMQSQIVSFYFKLFKNFKDDQSIQKSVETIKEDMNVKFFNSNKKKRDDFEKLTNYSVTDLNVQRKAIHELIQVMAELSPAAKTGKRKRSQMLFRG,binding result,no binding
